The values that follow are results of earlier work, collected in US20080279771A1, “Novel Imaging Agents for Cancer” (GE HEALTHCARE LIMITED, priority 2005, published 2008).

In general, Kd refers to the concentration at which binding is half-saturated.

For this data set, the target named is neuropilin-1 receptor (NP-1) (Homo sapiens, UniProt O14786). Particulars: NP-1 on tumour cells; read-out: Kd of binding of SEM-3A to NP-1.
neuropilin-1 receptor (NP-1), sequence (O14786 22-923): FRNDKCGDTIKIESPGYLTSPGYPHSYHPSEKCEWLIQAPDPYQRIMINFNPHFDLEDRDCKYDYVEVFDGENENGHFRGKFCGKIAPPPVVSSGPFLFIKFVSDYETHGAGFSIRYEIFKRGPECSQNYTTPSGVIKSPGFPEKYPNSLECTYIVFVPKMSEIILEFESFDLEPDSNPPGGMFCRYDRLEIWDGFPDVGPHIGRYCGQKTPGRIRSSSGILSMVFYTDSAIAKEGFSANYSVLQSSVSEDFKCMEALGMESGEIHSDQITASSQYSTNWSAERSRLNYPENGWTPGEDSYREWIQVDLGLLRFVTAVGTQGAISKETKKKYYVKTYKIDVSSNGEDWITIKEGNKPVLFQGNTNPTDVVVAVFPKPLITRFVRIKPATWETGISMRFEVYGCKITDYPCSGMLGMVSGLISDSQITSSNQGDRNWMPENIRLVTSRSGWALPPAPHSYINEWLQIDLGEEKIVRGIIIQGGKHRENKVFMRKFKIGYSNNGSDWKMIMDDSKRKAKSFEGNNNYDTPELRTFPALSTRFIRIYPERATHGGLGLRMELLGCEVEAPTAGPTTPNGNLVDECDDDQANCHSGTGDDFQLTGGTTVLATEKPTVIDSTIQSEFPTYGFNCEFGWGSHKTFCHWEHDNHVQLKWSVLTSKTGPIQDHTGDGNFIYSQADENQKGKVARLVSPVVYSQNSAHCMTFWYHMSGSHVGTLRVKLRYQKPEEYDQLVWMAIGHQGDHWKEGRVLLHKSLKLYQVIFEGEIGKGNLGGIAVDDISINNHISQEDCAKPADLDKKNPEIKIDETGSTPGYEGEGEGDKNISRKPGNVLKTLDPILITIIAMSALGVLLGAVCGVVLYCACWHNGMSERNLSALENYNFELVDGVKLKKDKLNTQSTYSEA

B1: SEM-3A: Semaphorin-3A, biological peptide that binds the neuropilin-1 receptor; human precursor form consists of 771 amino acids (protein, UniProt Q14563 21-771, looked up)
Semaphorin-3A: NYQNGKNNVPRLKLSYKEMLESNNVITFNGLANSSSYHTFLLDEERSRLYVGAKDHIFSFDLVNIKDFQKIVWPVSYTRRDECKWAGKDILKECANFIKVLKAYNQTHLYACGTGAFHPICTYIEIGHHPEDNIFKLENSHFENGRGKSPYDPKLLTASLLIDGELYSGTAADFMGRDFAIFRTLGHHHPIRTEQHDSRWLNDPKFISAHLISESDNPEDDKVYFFFRENAIDGEHSGKATHARIGQICKNDFGGHRSLVNKWTTFLKARLICSVPGPNGIDTHFDELQDVFLMNFKDPKNPVVYGVFTTSSNIFKGSAVCMYSMSDVRRVFLGPYAHRDGPNYQWVPYQGRVPYPRPGTCPSKTFGGFDSTKDLPDDVITFARSHPAMYNPVFPMNNRPIVIKTDVNYQFTQIVVDRVDAEDGQYDVMFIGTDVGTVLKVVSIPKETWYDLEEVLLEEMTVFREPTAISAMELSTKQQQLYIGSTAGVAQLPLHRCDIYGKACAECCLARDPYCAWDGSACSRYFPTAKRRTRRQDIRNGDPLTHCSDLHHDNHHGHSPEERIIYGVENSSTFLECSPKSQRALVYWQFQRRNEERKEEIRVDDHIIRTDQGLLLRSLQQKDSGNYLCHAVEHGFIQTLLKVTLEVIDTEHLEELLHKDDDGDGSKTKEMSNSMTPSQKVWYRDFMQLINHPNLNTMDEFCEQVWKRDRKQRRQRPGHTPGNSNKWKHLQENKKGRNRRTHEFERAPRSV
For the molecule B1, the dissociation constant (Kd) was roughly 0.28 nM.
